Laboratory results from patent US20200216522A1 (DENALI THERAPEUTICS, published 2020).
Positions count from the first letter of the chain named.

Key:
Test in all cases: peptide array
Peptide_040 = biological target: T1, Peptide_040 (human)
T1 peptide: GYSSPGSPGTPGSRS
Method in brief: (§1)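 Overlapping 15-mer peptides (5-aa offset) spanning human 2N4R Tau spotted in triplicate on slides; antibodies bound 2 h at room temperature in 3% BSA-TBST (chimeric IgG 5 μg/mL; mouse IgG 30 μg/mL). Detection 1 h with fluorescent anti-human (568 nm) or anti-mouse (647 nm) secondary; fluorescence imaging aligned to array map.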

Peptide_005 = biological target: T2, Peptide_005 (human)
T2 peptide: GDRKDQGGYTMHQDQ
Method in brief: as §1

Peptide_020 = biological target: T3, Peptide_020 (human)
T3 peptide: EIPEGTTAEEAGIGD
Method in brief: as §1

Peptide_061 = biological target: T4, Peptide_061 (human)
T4 peptide: PGGGSVQIVYKPVDL
Method in brief: as §1

Peptide_027 = biological target: T5, Peptide_027 (human)
T5 peptide: SKDGTGSDDKKAKGA
Method in brief: as §1

Peptide_052 = biological target: T6, Peptide_052 (human)
T6 peptide: VKSKIGSTENLKHQP
Method in brief: as §1

Peptide_024 = biological target: T7, Peptide_024 (human)
T7 peptide: DEAAGHVTQARMVSK
Method in brief: as §1

Peptide_034 = biological target: T8, Peptide_034 (human)
T8 peptide: ANATRIPAKTPPAPK
Method in brief: as §1

Peptide_021 = biological target: T9, Peptide_021 (human)
T9 peptide: TTAEEAGIGDTPSLE
Method in brief: as §1

Peptide_077 = biological target: T10, Peptide_077 (human)
T10 peptide: NAKAKTDHGAEIVYK
Method in brief: as §1

Peptide_064 = biological target: T11, Peptide_064 (human)
T11 peptide: SKVTSKCGSLGNIHH
Method in brief: as §1

Peptide_087 = biological target: T12, Peptide_087 (human)
T12 peptide: TLADEVSASLAKQGL
Method in brief: as §1

Peptide_071 = biological target: T13, Peptide_071 (human)
T13 peptide: QSKIGSLDNITHVPG
Method in brief: as §1

Peptide_012 = biological target: T14, Peptide_012 (human)
T14 peptide: SEEPGSETSDAKSTP
Method in brief: as §1

Peptide_011 = biological target: T15, Peptide_011 (human)
T15 peptide: PTEDGSEEPGSETSD
Method in brief: as §1

Peptide_033 = biological target: T16, Peptide_033 (human)
T16 peptide: GQKGQANATRIPAKT
Method in brief: as §1

Peptide_062 = biological target: T17, Peptide_062 (human)
T17 peptide: VQIVYKPVDLSKVTS
Method in brief: as §1

Peptide_028 = biological target: T18, Peptide_028 (human)
T18 peptide: GSDDKKAKGADGKTK
Method in brief: as §1

Peptide_032 = biological target: T19, Peptide_032 (human)
T19 peptide: GAAPPGQKGQANATR
Method in brief: as §1

Peptide_015 = biological target: T20, Peptide_015 (human)
T20 peptide: TAEDVTAPLVDEGAP
Method in brief: as §1

Peptide_063 = biological target: T21, Peptide_063 (human)
T21 peptide: KPVDLSKVTSKCGSL
Method in brief: as §1

Peptide_039 = biological target: T22, Peptide_039 (human)
T22 peptide: SGDRSGYSSPGSPGT
Method in brief: as §1

Peptide_053 = biological target: T23, Peptide_053 (human)
T23 peptide: GSTENLKHQPGGGKV
Method in brief: as §1

Peptide_004 = biological target: T24, Peptide_004 (human)
T24 peptide: GTYGLGDRKDQGGYT
Method in brief: as §1

Peptide_056 = biological target: T25, Peptide_056 (human)
T25 peptide: QIINKKLDLSNVQSK
Method in brief: as §1

Peptide_002 = biological target: T26, Peptide_002 (human)
T26 peptide: QEFEVMEDHAGTYGL
Method in brief: as §1

Peptide_037 = biological target: T27, Peptide_037 (human)
T27 peptide: TPPSSGEPPKSGDRS
Method in brief: as §1

Peptide_047 = biological target: T28, Peptide_047 (human)
T28 peptide: TPPKSPSSAKSRLQT
Method in brief: as §1

Peptide_085 = biological target: T29, Peptide_085 (human)
T29 peptide: DSPQLATLADEVSAS
Method in brief: as §1

Peptide_014 = biological target: T30, Peptide_014 (human)
T30 peptide: AKSTPTAEDVTAPLV
Method in brief: as §1

Peptide_067 = biological target: T31, Peptide_067 (human)
T31 peptide: KPGGGQVEVKSEKLD
Method in brief: as §1

Peptide_054 = biological target: T32, Peptide_054 (human)
T32 peptide: LKHQPGGGKVQIINK
Method in brief: as §1

process-control peptide = biological target: T33, process-control peptide
T33 construct: array control, not a Tau peptide
T33 peptide: GGSGGGSDYKDDDDK
Method in brief: as §1

Peptide_042 = biological target: T34, Peptide_042 (human)
T34 peptide: PGSRSRTPSLPTPPT
Method in brief: as §1

Peptide_036 = biological target: T35, Peptide_036 (human)
T35 peptide: PPAPKTPPSSGEPPK
Method in brief: as §1

Measured: binding result

B1: chimeric IgG clone 1A5 (antibody, V domains shown)
VH: EVQLQQSGAELVRPGASVKLSCTASGFNIKDSLIHWVKQRPEQGLEWIGWIDPEDGETKYAPKFQDKATKTADTSSNTAYLQLSSLTSEDTAIYYCASGEWDYWGQGTSVTVSS
VL: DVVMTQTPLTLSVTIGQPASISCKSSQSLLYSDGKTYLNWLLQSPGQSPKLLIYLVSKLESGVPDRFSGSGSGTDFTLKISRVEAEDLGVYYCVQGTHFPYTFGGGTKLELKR
notes: mouse-human chimeric IgG from HEK293
binds: Peptide_052
no binding (tested: 5 ug/mL): all other assays above

B2: chimeric IgG clone 1A1 (antibody, V domains shown)
VH: EVQLQQSGAELVRPGASVRLSCTASGFNIKDSLMHWLKQRPEQGLEWIGWIDPEDGETKYAPKFQDKATITADTSSNTAYLQLSSLTSEDTAIYYCTRRDWEGPWGQGTLVTVSA
VL: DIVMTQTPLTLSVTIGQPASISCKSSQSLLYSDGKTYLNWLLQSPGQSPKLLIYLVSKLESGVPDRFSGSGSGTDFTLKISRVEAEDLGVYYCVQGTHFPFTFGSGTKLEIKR
notes: mouse-human chimeric IgG from HEK293; also called anti-Tau 1A1; anti-Tau^1A1
binds: Peptide_052
no binding (tested: 5 ug/mL): all other assays above

B3: chimeric IgG clone 1G7 (antibody, V domains shown)
VH: B2 VH with L11V, R19K, A24T, E89G, T97A
VL: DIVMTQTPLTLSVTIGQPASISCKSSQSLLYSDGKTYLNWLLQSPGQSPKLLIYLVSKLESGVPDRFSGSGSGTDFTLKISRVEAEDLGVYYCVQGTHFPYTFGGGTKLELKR
notes: as for B1
binds: Peptide_052
no binding (tested: 5 ug/mL): all other assays above
